Values quoted from earlier work in paper PMC7490560.
Values joined by “and” are separate entries in the source; they are usually repeats but may differ in a detail not shown here. Equal entries are not always repeated.

Target: KEAP1 (Homo sapiens) (UniProt Q14145)
Sequence (Q14145 whole entry): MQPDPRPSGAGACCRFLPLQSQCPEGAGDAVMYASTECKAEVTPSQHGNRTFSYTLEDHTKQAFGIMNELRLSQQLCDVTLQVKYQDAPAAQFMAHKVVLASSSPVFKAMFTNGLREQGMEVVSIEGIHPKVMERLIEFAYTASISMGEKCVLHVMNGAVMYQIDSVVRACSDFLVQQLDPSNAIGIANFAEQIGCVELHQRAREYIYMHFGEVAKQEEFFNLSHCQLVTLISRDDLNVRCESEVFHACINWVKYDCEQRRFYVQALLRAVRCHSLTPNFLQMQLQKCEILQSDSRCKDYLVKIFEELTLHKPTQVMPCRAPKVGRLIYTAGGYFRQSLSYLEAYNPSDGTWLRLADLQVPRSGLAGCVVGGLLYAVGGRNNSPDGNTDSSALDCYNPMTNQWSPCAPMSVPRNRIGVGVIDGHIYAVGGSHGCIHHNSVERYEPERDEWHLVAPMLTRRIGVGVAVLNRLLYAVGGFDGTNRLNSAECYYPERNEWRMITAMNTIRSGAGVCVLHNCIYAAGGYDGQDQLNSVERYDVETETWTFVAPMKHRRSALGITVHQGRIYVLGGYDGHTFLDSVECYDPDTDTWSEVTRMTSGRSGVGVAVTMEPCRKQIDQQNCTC

Chain of NRF2 (Q16236 whole entry): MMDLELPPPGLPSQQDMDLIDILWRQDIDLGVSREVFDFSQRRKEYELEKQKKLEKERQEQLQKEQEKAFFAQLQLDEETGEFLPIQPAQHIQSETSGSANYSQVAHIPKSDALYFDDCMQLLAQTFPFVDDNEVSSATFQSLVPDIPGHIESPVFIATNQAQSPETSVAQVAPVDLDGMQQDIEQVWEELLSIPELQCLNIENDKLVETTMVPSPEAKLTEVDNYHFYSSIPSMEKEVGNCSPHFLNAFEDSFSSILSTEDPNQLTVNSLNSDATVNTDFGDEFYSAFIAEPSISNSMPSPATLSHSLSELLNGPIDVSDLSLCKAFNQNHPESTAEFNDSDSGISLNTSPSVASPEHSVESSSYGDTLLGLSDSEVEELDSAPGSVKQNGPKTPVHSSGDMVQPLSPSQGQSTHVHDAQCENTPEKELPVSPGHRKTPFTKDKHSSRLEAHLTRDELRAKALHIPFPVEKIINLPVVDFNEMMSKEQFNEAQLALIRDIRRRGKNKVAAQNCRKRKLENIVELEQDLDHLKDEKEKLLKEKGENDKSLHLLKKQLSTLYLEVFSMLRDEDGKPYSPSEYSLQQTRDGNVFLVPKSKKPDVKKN

- Kd: 580 nM and 167 nM
Substance: NRF2 (from UniProt Q16236)
